Results on one molecule are retold here after patent publication US20070093443A1.

For this assay, the target named is T1, alpha-2 macroglobulin (in human plasma) (human) (UniProt P01023).
T1 sequence (looked up): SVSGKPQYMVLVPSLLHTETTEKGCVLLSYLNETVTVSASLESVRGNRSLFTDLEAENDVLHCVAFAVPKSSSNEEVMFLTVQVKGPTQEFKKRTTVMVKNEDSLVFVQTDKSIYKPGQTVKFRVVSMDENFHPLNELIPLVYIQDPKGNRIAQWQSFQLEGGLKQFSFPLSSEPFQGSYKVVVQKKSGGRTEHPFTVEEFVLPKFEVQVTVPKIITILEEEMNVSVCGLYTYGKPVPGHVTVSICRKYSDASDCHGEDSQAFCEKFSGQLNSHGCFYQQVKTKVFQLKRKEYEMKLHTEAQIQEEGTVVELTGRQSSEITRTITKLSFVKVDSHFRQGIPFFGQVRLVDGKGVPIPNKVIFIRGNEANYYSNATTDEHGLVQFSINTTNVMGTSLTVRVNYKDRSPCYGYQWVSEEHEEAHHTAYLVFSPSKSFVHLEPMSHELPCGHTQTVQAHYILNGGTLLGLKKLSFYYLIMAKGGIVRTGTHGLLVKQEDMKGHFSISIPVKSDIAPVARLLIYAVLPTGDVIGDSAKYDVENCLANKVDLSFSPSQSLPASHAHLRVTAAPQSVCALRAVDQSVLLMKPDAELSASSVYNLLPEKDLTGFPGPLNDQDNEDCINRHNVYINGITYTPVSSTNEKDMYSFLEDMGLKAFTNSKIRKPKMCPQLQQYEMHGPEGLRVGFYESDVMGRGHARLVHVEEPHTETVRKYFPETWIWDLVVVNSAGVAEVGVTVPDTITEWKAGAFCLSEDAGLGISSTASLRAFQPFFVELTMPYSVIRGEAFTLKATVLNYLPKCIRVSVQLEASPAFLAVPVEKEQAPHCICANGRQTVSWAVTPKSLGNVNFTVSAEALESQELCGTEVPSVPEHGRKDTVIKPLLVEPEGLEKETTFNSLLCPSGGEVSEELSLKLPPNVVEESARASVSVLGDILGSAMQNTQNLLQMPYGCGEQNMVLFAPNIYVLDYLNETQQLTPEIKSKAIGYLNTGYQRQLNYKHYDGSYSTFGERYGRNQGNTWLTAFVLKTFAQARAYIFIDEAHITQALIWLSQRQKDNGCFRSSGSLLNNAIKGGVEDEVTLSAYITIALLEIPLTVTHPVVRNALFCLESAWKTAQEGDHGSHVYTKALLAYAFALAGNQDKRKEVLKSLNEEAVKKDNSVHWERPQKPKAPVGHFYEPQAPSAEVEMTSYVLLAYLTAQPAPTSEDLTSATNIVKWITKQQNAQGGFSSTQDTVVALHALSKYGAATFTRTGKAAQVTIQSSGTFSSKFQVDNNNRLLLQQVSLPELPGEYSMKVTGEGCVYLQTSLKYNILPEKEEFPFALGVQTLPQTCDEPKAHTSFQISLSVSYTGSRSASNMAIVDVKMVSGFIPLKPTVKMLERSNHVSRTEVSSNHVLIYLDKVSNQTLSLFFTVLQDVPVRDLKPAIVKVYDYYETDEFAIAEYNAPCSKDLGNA
In words: Ac-RQAR-AMC activity of protease after 5 min in human citrated plasma, with and without M84R ecotin.

B1: modified MT-SP1 CB484 (I41T/Y146E/Q175D/K224F) protease domain (enzyme)
chain: VVGGTDADEGEWPWQVSLHALGQGHTCGASLISPNWLVSAAHCYIDDRGFRYSDPTQWTAFLGLHDQSQRSAPGVQERRLKRIISHPFFNDFTFDYDIALLELEKPAEYSSMVRPICLPDASHVFPAGKAIWVTGWGHTQEGGTGALILQKGEIRVINQTTCENLLPQDITPRMMCVGFLSGGVDSCQGDSGGPLSSVEADGRIFQAGVVSWGDGCAQRNFPGVYTRLPLFRDWIKENTGV
In turn, B1 gave a % Unbound by a2M of 94%.
